Here are results for three molecules from article PMC3005623 (Journal of molecular biology, 2010).

Like-named read-outs stand apart in the source and are kept apart here.

One data set concerns the target T1, Cdc12 (S. cerevisiae, UniProt P32468 1-407).
T1 sequence (looked up): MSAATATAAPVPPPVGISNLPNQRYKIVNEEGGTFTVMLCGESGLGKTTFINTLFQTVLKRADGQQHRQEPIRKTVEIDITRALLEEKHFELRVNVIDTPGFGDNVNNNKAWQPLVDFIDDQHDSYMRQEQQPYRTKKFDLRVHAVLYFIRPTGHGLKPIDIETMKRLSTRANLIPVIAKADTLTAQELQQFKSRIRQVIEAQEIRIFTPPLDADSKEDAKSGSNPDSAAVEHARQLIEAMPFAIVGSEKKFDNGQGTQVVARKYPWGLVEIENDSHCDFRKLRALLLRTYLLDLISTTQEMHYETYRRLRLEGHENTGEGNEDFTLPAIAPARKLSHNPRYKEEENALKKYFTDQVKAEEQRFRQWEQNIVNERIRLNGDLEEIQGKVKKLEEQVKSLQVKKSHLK
In words: negative-stain electron microscopy.

Data set [1] deals with the molecule itself. In words: electron microscopy of lipid monolayers.
Data set [2] deals with the molecule itself. In words: electron microscopy of lipid monolayers. This is another data set of the same source.

B1: Cdc11(Δ2–18) (natural protein, S. cerevisiae, UniProt P32458 1-415, looked up)
chain: MRGITFTVMIVGQSGSGRSTFINTLCGQQVVDTSTTILLPTDTSTEIDLQLREETVELEDDEGVKIQLNIIDTPGFGDSLDNSPSFEIISDYIRHQYDEILLEESRVRRNPRFKDGRVHCCLYLINPTGHGLKEIDVEFIRQLGSLVNIIPVISKSDSLTRDELKLNKKLIMEDIDRWNLPIYNFPFDEDEISDEDYETNMYLRTLLPFAIIGSNEVYEMGGDVGTIRGRKYPWGILDVEDSSISDFVILRNALLISHLHDLKNYTHEILYERYRTEALSGESVAAESIRPNLTKLNGSSSSSTTTRRNTNPFKQSNNINNDVLNPASDMHGQSTGENNETYMTREEQIRLEEERLKAFEERVQQELLLKRQELLQREKELREIEARLEKEAKIKQEE
With B1, the “percent of particles that are heptamers” value with Cdc12 is 5.4%.

B2: Cdc12–(His)6-Cdc3–Cdc10–Cdc11(Δ306–415) complex (complex, S. cerevisiae)
chain 1: T1 sequence (looked up)
chain 2: MSLKEEQVSIKQDPEQEERQHDQFNDVQIKQESQDHDGVDSQYTNGTQNDDSERFEAAESDVKVEPGLGMGITSSQSEKGQVLPDQPEIKFIRRQINGYVGFANLPKQWHRRSIKNGFSFNLLCVGPDGIGKTTLMKTLFNNDDIEANLVKDYEEELANDQEEEEGQGEGHENQSQEQRHKVKIKSYESVIEENGVKLNLNVIDTEGFGDFLNNDQKSWDPIIKEIDSRFDQYLDAENKINRHSINDKRIHACLYFIEPTGHYLKPLDLKFMQSVYEKCNLIPVIAKSDILTDEEILSFKKTIMNQLIQSNIELFKPPIYSNDDAENSHLSERLFSSLPYAVIGSNDIVENYSGNQVRGRSYPWGVIEVDNDNHSDFNLLKNLLIKQFMEELKERTSKILYENYRSSKLAKLGIKQDNSVFKEFDPISKQQEEKTLHEAKLAKLEIEMKTVFQQKVSEKEKKLQKSETELFARHKEMKEKLTKQLKALEDKKKQLELSINSASPNVNHSPVPTKKKGFLR
chain 3: MDPLSSVQPASYVGFDTITNQIEHRLLKKGFQFNIMVVGQSGLGKSTLINTLFASHLIDSATGDDISALPVTKTTEMKISTHTLVEDRVRLNINVIDTPGFGDFIDNSKAWEPIVKYIKEQHSQYLRKELTAQRERFITDTRVHAILYFLQPNGKELSRLDVEALKRLTEIANVIPVIGKSDTLTLDERTEFRELIQNEFEKYNFKIYPYDSEELTDEELELNRSVRSIIPFAVVGSENEIEINGETFRGRKTRWSAINVEDINQCDFVYLREFLIRTHLQDLIETTSYIHYEGFRARQLIALKENANSRSSAHMSSNAIQR
chain 4: MSGIIDASSALRKRKHLKRGITFTVMIVGQSGSGRSTFINTLCGQQVVDTSTTILLPTDTSTEIDLQLREETVELEDDEGVKIQLNIIDTPGFGDSLDNSPSFEIISDYIRHQYDEILLEESRVRRNPRFKDGRVHCCLYLINPTGHGLKEIDVEFIRQLGSLVNIIPVISKSDSLTRDELKLNKKLIMEDIDRWNLPIYNFPFDEDEISDEDYETNMYLRTLLPFAIIGSNEVYEMGGDVGTIRGRKYPWGILDVEDSSISDFVILRNALLISHLHDLKNYTHEILYERYRTEALSGESVAAES
With B2, the binding result in data set [1] is recorded as “binds”.

B3: (His)6–Cdc12-Cdc10-Cdc3 complex (complex, S. cerevisiae)
chain 1: T1 sequence (looked up)
chain 2: B2 chain 3
chain 3: B2 chain 2
Turning to B3, in data set [2], the binding result is given as “binds”.
